Source: PMC7241075
Several values for one entry are separate records, joined by “and”; a condition that tells them apart may be missing. Identical values can stand only once.

Assays:
[1] = molecular target: Scolopendra subspinipes subspinipes haemocyanin (Scolopendra subspinipes subspinipes); assay: negative-stain transmission electron microscopy; first SEC peak in TRIS stabilizing buffer, stained with 2% uranyl acetate, Jeol 1400Plus
[2] = molecular target: Scolopendra subspinipes subspinipes haemocyanin (Scolopendra subspinipes subspinipes); assay: as above; remark: listed apart in the source
[3] = molecular target: Scolopendra subspinipes subspinipes haemocyanin (Scolopendra subspinipes subspinipes); assay: SEC; plasma (supernatant of haemolymph, 3300g, 30 min, 4°C) on Superose 6 3.2/300, isocratic Tris buffer with 5 mM CaCl2 and 5 mM MgCl2, pH 8.2 or 8.0 (methods), 0.1 ml min^-1; oligomer told from the retention volume
[4] = molecular target: Scolopendra subspinipes subspinipes haemocyanin (Scolopendra subspinipes subspinipes); assay: negative-stain transmission electron microscopy; Hc pellet from ultracentrifugation, 26-30 µg ml^-1, in 50 mM MES (pH 6.2, 6.6) or 50 mM TRIS-HCl (pH 7.2-8.5) with 5 mM CaCl2 and 5 mM MgCl2; particles counted as 3 × 6-mer or 1 × 6-mer
[5] = molecular target: Scolopendra viridicornis haemocyanin (Scolopendra viridicornis); assay: negative-stain transmission electron microscopy; first SEC peak in TRIS stabilizing buffer, stained with 2% uranyl acetate, Jeol 1400Plus
[6] = molecular target: Scolopendra viridicornis haemocyanin (Scolopendra viridicornis); assay: SEC; plasma (supernatant of haemolymph, 3300g, 30 min, 4°C) on Superose 6 3.2/300, isocratic Tris buffer with 5 mM CaCl2 and 5 mM MgCl2, pH 8.2 or 8.0 (methods), 0.1 ml min^-1; oligomer told from the retention volume

Row | stoichiometry N [1] | stoichiometry N [2] | stoichiometry N [4] | stoichiometry N [5] | Substance | stoichiometry N [3] | stoichiometry N [6]
1 | 18 | 6 | 18 and 6 | – | Scolopendra subspinipes subspinipes haemocyanin (complex) | 18 | –
2 | – | – | – | 36 and 18 | Scolopendra viridicornis haemocyanin (complex) | – | 36
